# According to patent publication US20200079833A1 (AstraZeneca / MedImmune, published 2020):
# Starred links: 1 amine or outer side, 2 acyl side, 3 side chain; linkers in the order of their positions; H or OH if unused. Non-standard residues stand in square brackets, D forms with d. Groups on a side chain read outwards from the residue. Primed or numbered codes have the meaning given here. No end group written: not given here. *: point of attachment. γGlu = O=C(O)[C@H](CCC(=O)[*:2])N[*:1]; Stearoyl = CCCCCCCCCCCCCCCCCC(=O)*; αMeF = C[C@](N)(Cc1ccccc1)C(=O)O; αMeK = C[C@](N)(CCCCN)C(=O)O; αMeS = C[C@](N)(CO)C(=O)O; PEG2′ = not defined here; Aib = CC(C)(N)C(=O)O; Ahx = NCCCCCC(=O)O
# T1: glucose-dependent insulinotropic peptide (gastric inhibitory polypeptide) receptor (GIPR) (human, UniProt P48546 22-466)
# T1 sequence (looked up): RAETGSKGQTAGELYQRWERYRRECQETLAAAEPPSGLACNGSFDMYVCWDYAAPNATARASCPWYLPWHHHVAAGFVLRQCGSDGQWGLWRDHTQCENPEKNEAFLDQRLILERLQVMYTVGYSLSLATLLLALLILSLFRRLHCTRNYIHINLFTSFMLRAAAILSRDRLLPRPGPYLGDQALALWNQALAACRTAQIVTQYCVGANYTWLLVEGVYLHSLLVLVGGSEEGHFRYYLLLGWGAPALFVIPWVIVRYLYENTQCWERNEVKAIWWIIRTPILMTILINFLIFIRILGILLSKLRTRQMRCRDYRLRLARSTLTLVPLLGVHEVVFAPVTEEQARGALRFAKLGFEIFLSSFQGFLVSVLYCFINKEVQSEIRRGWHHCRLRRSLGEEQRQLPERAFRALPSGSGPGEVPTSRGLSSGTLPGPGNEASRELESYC
# Assays:
# Test in all cases: cell-based or functional assay
# GLP-1 receptor (GLP-1R) = GLP-1 receptor (GLP-1R) (human, UniProt P43220 24-463)
# glucagon receptor (GCGR) = glucagon receptor (GCGR) (human, UniProt P47871 26-477)
# Chain of glucagon receptor (GCGR) (P47871 26-477): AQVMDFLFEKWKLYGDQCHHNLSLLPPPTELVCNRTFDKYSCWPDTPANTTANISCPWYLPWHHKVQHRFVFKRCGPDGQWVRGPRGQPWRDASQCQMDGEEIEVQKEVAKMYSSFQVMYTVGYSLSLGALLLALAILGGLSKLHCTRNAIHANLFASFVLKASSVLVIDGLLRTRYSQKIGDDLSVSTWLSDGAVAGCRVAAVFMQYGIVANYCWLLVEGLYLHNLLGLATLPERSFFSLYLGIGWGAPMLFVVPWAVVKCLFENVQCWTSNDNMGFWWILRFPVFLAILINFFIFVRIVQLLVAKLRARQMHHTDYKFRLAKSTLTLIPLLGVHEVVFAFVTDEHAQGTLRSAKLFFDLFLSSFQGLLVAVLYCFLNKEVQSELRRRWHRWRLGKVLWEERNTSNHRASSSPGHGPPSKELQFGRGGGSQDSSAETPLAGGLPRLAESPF
# [1] = target: T1, glucose-dependent insulinotropic …
Binder,"Primary assay EC50 (cAMP), GLP-1R n1 (GLP-1 receptor (GLP-1R)) [nM]","Primary assay EC50 (cAMP), GLP-1R n2 (GLP-1 receptor (GLP-1R)) [nM]","Primary assay EC50 (cAMP), Mean pM GLP-1R (GLP-1 receptor (GLP-1R)) [pM]","Primary assay EC50 (cAMP), Gluc-R, first run (glucagon receptor (GCGR)) [nM]","Primary assay EC50 (cAMP), Gluc-R, second run (glucagon receptor (GCGR)) [nM]","Primary assay EC50 (cAMP), GIP-R, first run [1] [nM]","Primary assay EC50 (cAMP), GIP-R, second run [1] [nM]"
H[Aib]EGS[αMeF]TSDV[αMeS]S[αMeF]LEGEAA[αMeK]E[αMeF]IA[αMeF]VVK([Ahx-Ahx-Stearoyl])GG-NH2 (N-terminus assumed; SMILES CCCCCCCCCCCCCCCCCC(=O)NCCCCCC(=O)NCCCCCC(=O)NCCCC[C@H](NC(=O)[C@@H](NC(=O)[C@@H](NC(=O)[C@](C)(Cc1ccccc1)NC(=O)[C@H](C)NC(=O)[C@@H](NC(=O)[C@](C)(Cc1ccccc1)NC(=O)[C@H](CCC(=O)O)NC(=O)[C@](C)(CCCCN)NC(=O)[C@H](C)NC(=O)[C@H](C)NC(=O)[C@H](CCC(=O)O)NC(=O)CNC(=O)[C@H](CCC(=O)O)NC(=O)[C@H](CC(C)C)NC(=O)[C@](C)(Cc1ccccc1)NC(=O)[C@H](CO)NC(=O)[C@](C)(CO)NC(=O)[C@@H](NC(=O)[C@H](CC(=O)O)NC(=O)[C@H](CO)NC(=O)[C@@H](NC(=O)[C@](C)(Cc1ccccc1)NC(=O)[C@H](CO)NC(=O)CNC(=O)[C@H](CCC(=O)O)NC(=O)C(C)(C)NC(=O)[C@@H](N)Cc1c[nH]cn1)[C@@H](C)O)C(C)C)[C@@H](C)CC)C(C)C)C(C)C)C(=O)NCC(=O)NCC(N)=O) [SEQ ID NO 186],0.13,0.05,87.5,27,27,27,27
H[Aib]EGS[αMeF]TSDV[αMeS]S[αMeF]LEGEAA[αMeK]E[αMeF]IA[αMeF]VVK([γGlu-γGlu-Stearoyl])GG-NH2 (N-terminus assumed; SMILES CCCCCCCCCCCCCCCCCC(=O)N[C@@H](CCC(=O)N[C@@H](CCC(=O)NCCCC[C@H](NC(=O)[C@@H](NC(=O)[C@@H](NC(=O)[C@](C)(Cc1ccccc1)NC(=O)[C@H](C)NC(=O)[C@@H](NC(=O)[C@](C)(Cc1ccccc1)NC(=O)[C@H](CCC(=O)O)NC(=O)[C@](C)(CCCCN)NC(=O)[C@H](C)NC(=O)[C@H](C)NC(=O)[C@H](CCC(=O)O)NC(=O)CNC(=O)[C@H](CCC(=O)O)NC(=O)[C@H](CC(C)C)NC(=O)[C@](C)(Cc1ccccc1)NC(=O)[C@H](CO)NC(=O)[C@](C)(CO)NC(=O)[C@@H](NC(=O)[C@H](CC(=O)O)NC(=O)[C@H](CO)NC(=O)[C@@H](NC(=O)[C@](C)(Cc1ccccc1)NC(=O)[C@H](CO)NC(=O)CNC(=O)[C@H](CCC(=O)O)NC(=O)C(C)(C)NC(=O)[C@@H](N)Cc1c[nH]cn1)[C@@H](C)O)C(C)C)[C@@H](C)CC)C(C)C)C(C)C)C(=O)NCC(=O)NCC(N)=O)C(=O)O)C(=O)O) [SEQ ID NO 183],0.064,0.018,40.9,27,27,27,27
H[Aib]EGS[αMeF]TSDV[αMeS]S[αMeF]LEGEAA[αMeK]E[αMeF]IA[αMeF]VVK([PEG2′-Stearoyl])GG-NH2 [SEQ ID NO 188],0.17,0.077,125,28,28,28,28
H[Aib]EGS[αMeF]TSDV[αMeS]S[αMeF]LEGEAA[αMeK]E[αMeF]IA[αMeF]VVK([Ahx-Ahx-Ahx-Stearoyl])GG-NH2 (N-terminus assumed; SMILES CCCCCCCCCCCCCCCCCC(=O)NCCCCCC(=O)NCCCCCC(=O)NCCCCCC(=O)NCCCC[C@H](NC(=O)[C@@H](NC(=O)[C@@H](NC(=O)[C@](C)(Cc1ccccc1)NC(=O)[C@H](C)NC(=O)[C@@H](NC(=O)[C@](C)(Cc1ccccc1)NC(=O)[C@H](CCC(=O)O)NC(=O)[C@](C)(CCCCN)NC(=O)[C@H](C)NC(=O)[C@H](C)NC(=O)[C@H](CCC(=O)O)NC(=O)CNC(=O)[C@H](CCC(=O)O)NC(=O)[C@H](CC(C)C)NC(=O)[C@](C)(Cc1ccccc1)NC(=O)[C@H](CO)NC(=O)[C@](C)(CO)NC(=O)[C@@H](NC(=O)[C@H](CC(=O)O)NC(=O)[C@H](CO)NC(=O)[C@@H](NC(=O)[C@](C)(Cc1ccccc1)NC(=O)[C@H](CO)NC(=O)CNC(=O)[C@H](CCC(=O)O)NC(=O)C(C)(C)NC(=O)[C@@H](N)Cc1c[nH]cn1)[C@@H](C)O)C(C)C)[C@@H](C)CC)C(C)C)C(C)C)C(=O)NCC(=O)NCC(N)=O) [SEQ ID NO 187],0.064,0.031,47.4,26,26,26,26

# Continued, values first:
"Primary assay EC50 (cAMP), GLP-1R n1 (GLP-1 receptor (GLP-1R)) [nM]","Primary assay EC50 (cAMP), GLP-1R n2 (GLP-1 receptor (GLP-1R)) [nM]","Primary assay EC50 (cAMP), Mean pM GLP-1R (GLP-1 receptor (GLP-1R)) [pM]","Primary assay EC50 (cAMP), Gluc-R, first run (glucagon receptor (GCGR)) [nM]","Primary assay EC50 (cAMP), Gluc-R, second run (glucagon receptor (GCGR)) [nM]","Primary assay EC50 (cAMP), GIP-R, first run [1] [nM]","Primary assay EC50 (cAMP), GIP-R, second run [1] [nM]",Binder
0.13,0.052,89.9,28,28,28,28,H[Aib]EGS[αMeF]TSDV[αMeS]S[αMeF]LEGEAA[αMeK]E[αMeF]IA[αMeF]VVK([γGlu-Stearoyl])GG-NH2 (N-terminus assumed; SMILES CCCCCCCCCCCCCCCCCC(=O)N[C@@H](CCC(=O)NCCCC[C@H](NC(=O)[C@@H](NC(=O)[C@@H](NC(=O)[C@](C)(Cc1ccccc1)NC(=O)[C@H](C)NC(=O)[C@@H](NC(=O)[C@](C)(Cc1ccccc1)NC(=O)[C@H](CCC(=O)O)NC(=O)[C@](C)(CCCCN)NC(=O)[C@H](C)NC(=O)[C@H](C)NC(=O)[C@H](CCC(=O)O)NC(=O)CNC(=O)[C@H](CCC(=O)O)NC(=O)[C@H](CC(C)C)NC(=O)[C@](C)(Cc1ccccc1)NC(=O)[C@H](CO)NC(=O)[C@](C)(CO)NC(=O)[C@@H](NC(=O)[C@H](CC(=O)O)NC(=O)[C@H](CO)NC(=O)[C@@H](NC(=O)[C@](C)(Cc1ccccc1)NC(=O)[C@H](CO)NC(=O)CNC(=O)[C@H](CCC(=O)O)NC(=O)C(C)(C)NC(=O)[C@@H](N)Cc1c[nH]cn1)[C@@H](C)O)C(C)C)[C@@H](C)CC)C(C)C)C(C)C)C(=O)NCC(=O)NCC(N)=O)C(=O)O) [SEQ ID NO 182]
0.047,0.012,29.5,26,26,26,26,H[Aib]EGS[αMeF]TSDV[αMeS]S[αMeF]LEGEAA[αMeK]E[αMeF]IA[αMeF]VVK([γGlu-γGlu-γGlu-Stearoyl])GG-NH2 (N-terminus assumed; SMILES CCCCCCCCCCCCCCCCCC(=O)N[C@@H](CCC(=O)N[C@@H](CCC(=O)N[C@@H](CCC(=O)NCCCC[C@H](NC(=O)[C@@H](NC(=O)[C@@H](NC(=O)[C@](C)(Cc1ccccc1)NC(=O)[C@H](C)NC(=O)[C@@H](NC(=O)[C@](C)(Cc1ccccc1)NC(=O)[C@H](CCC(=O)O)NC(=O)[C@](C)(CCCCN)NC(=O)[C@H](C)NC(=O)[C@H](C)NC(=O)[C@H](CCC(=O)O)NC(=O)CNC(=O)[C@H](CCC(=O)O)NC(=O)[C@H](CC(C)C)NC(=O)[C@](C)(Cc1ccccc1)NC(=O)[C@H](CO)NC(=O)[C@](C)(CO)NC(=O)[C@@H](NC(=O)[C@H](CC(=O)O)NC(=O)[C@H](CO)NC(=O)[C@@H](NC(=O)[C@](C)(Cc1ccccc1)NC(=O)[C@H](CO)NC(=O)CNC(=O)[C@H](CCC(=O)O)NC(=O)C(C)(C)NC(=O)[C@@H](N)Cc1c[nH]cn1)[C@@H](C)O)C(C)C)[C@@H](C)CC)C(C)C)C(C)C)C(=O)NCC(=O)NCC(N)=O)C(=O)O)C(=O)O)C(=O)O) [SEQ ID NO 184]
0.38,0.12,251,28,28,28,28,H[Aib]EGS[αMeF]TSDV[αMeS]S[αMeF]LEGEAA[αMeK]E[αMeF]IA[αMeF]VVK([Ahx-Stearoyl])GG-NH2 (N-terminus assumed; SMILES CCCCCCCCCCCCCCCCCC(=O)NCCCCCC(=O)NCCCC[C@H](NC(=O)[C@@H](NC(=O)[C@@H](NC(=O)[C@](C)(Cc1ccccc1)NC(=O)[C@H](C)NC(=O)[C@@H](NC(=O)[C@](C)(Cc1ccccc1)NC(=O)[C@H](CCC(=O)O)NC(=O)[C@](C)(CCCCN)NC(=O)[C@H](C)NC(=O)[C@H](C)NC(=O)[C@H](CCC(=O)O)NC(=O)CNC(=O)[C@H](CCC(=O)O)NC(=O)[C@H](CC(C)C)NC(=O)[C@](C)(Cc1ccccc1)NC(=O)[C@H](CO)NC(=O)[C@](C)(CO)NC(=O)[C@@H](NC(=O)[C@H](CC(=O)O)NC(=O)[C@H](CO)NC(=O)[C@@H](NC(=O)[C@](C)(Cc1ccccc1)NC(=O)[C@H](CO)NC(=O)CNC(=O)[C@H](CCC(=O)O)NC(=O)C(C)(C)NC(=O)[C@@H](N)Cc1c[nH]cn1)[C@@H](C)O)C(C)C)[C@@H](C)CC)C(C)C)C(C)C)C(=O)NCC(=O)NCC(N)=O) [SEQ ID NO 185]
